Source: the supplement of paper PMC12764529
± gives the half width of the 95% confidence interval.

Assays:
[1] = folding stability dG unfold from chymotrypsin proteolysis; higher = more stable
Description: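 Folding stability of de novo designed mini-proteins (<80 aa, no Cys; designed by TrROS, TrMRF, ProteinMPNN and the joint model) was measured by cDNA display proteolysis with trypsin and chymotrypsin. Each protease was used at 11 concentrations in a threefold dilution series plus a no-protease condition. K50 was inferred by Bayesian fitting of sequencing counts, and dG unfold was derived against a sequence-predicted unfolded-state K50 (Tsuboyama et al. method). Sequences shown include variable-length N-terminal GS-type padding (SAGGSAGG...) inside a display construct carrying a PA tag. Rows were kept only if the AF2 dimer inter-PAE was >15, to exclude likely homo-oligomers.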

[2] = folding stability dG unfold (combined trypsin and chymotrypsin); higher = more stable
Summary of the method: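 Bayesian fitting of sequencing counts gave K50 for each design. Unfolding free energy followed by setting this against a sequence-predicted unfolded-state K50 and a shared folded-state K50, either per protease or with trypsin and chymotrypsin combined. The designs, under 80 residues and lacking cysteine, were digested in a PA-tagged cDNA display format at 11 threefold-diluted protease concentrations and without protease, and only those with AlphaFold2 dimer inter-PAE above 15 were kept.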

## SAGGSAGGPIRIDPEDGRIRNNGQPYKFDKIEDIEPNENNKSIRLTIRMKNGKEHKQPIPADDISAGGSAGG [r6_682_TrROS]
[1]
  folding stability dG unfold: -0.759 ± 1 kcal/mol
[2]
  folding stability dG unfold: < -1 kcal/mol

## SAGGSAGGSAGGPLPVTVTVLERTHYPEEGLYTVKTEGGTVITLPPELIDKHPPGSTVLLSAGGSAGGSAGG [r11_124_JUSTAS]
[1]
  folding stability dG unfold: -0.736 ± 0.82 kcal/mol
[2]
  folding stability dG unfold: < -1 kcal/mol

## SAGGSAGGSAGGSAVEVDPNGGVTRTRYPGGAVRLETVSPTPDGSLATRTEEVELPGLASAGGSAGGSAGGS [r4_248_JUSTAS]
[1]
  folding stability dG unfold: 0.871 ± 0.013 kcal/mol
[2]
  folding stability dG unfold: 0.403 ± 0.051 kcal/mol

## SAGGSAGGSAGGVRPNPNGQYEVTVTIRNPGGGNKREKTINATPDEIEELQDQGFEIEPSAGGSAGGSAGGS [r10_749_TrROS]
[1]
  folding stability dG unfold: -1.08 ± 0.35 kcal/mol
[2]
  folding stability dG unfold: < -1 kcal/mol

## PPVGPDAPVTPTTTPTPSGKTVTTTDRPLRREVTTTDPSTGTYTVTLTETDAAGRVLATRTETLSPEEVAAS [r1_380_JUSTAS]
[1]
  folding stability dG unfold: -0.0788 ± 0.36 kcal/mol
[2]
  folding stability dG unfold: -0.541 ± 0.31 kcal/mol

## SAGGSAGGSAKTVEIPLKDLKPDKDGKYNYDEIQDQIKEKFPPNGIDKVDIDTPRQIWDQFRSAGGSAGGSA [r18_72_TrROS]
[1]
  folding stability dG unfold: 0.157 ± 0.21 kcal/mol
[2]
  folding stability dG unfold: -0.329 ± 0.42 kcal/mol

## SAGGSAGGSVIPFPGNSRIYVTEVREDGVKIKFPDIGTEITVPANVPINLVGNPTIGPDGTPYSAGGSAGGS [r20_105_TrMRF]
[1]
  folding stability dG unfold: -0.946 ± 0.53 kcal/mol
[2]
  folding stability dG unfold: < -1 kcal/mol

## SAGGSAGGSAGGSMKTITFTDPAEIAAAIEEAEKEGVEEVVLLTPEGKTRVIPKGVPLPSAGGSAGGSAGGS [r4_260_JUSTAS]
[1]
  folding stability dG unfold: 0.516 ± 0.083 kcal/mol
[2]
  folding stability dG unfold: -0.00846 ± 0.37 kcal/mol

## SAGMKTLTGPPEVLEELVEKALKENPNAKTVTIVDGDKSVTVPKDEEVEFLEPAPQPDGEPYVTIEILESAG [r5_130_JUSTAS]
[1]
  folding stability dG unfold: 0.669 ± 0.048 kcal/mol
[2]
  folding stability dG unfold: 0.101 ± 0.13 kcal/mol

## SAGSIQVSESALAPGYSLYTITIPYQSIEDAKKLVEEIVSKRFSVPAEIIETKVDPNTGVVTFTVKVPPSAG [r5_810_JUSTAS]
[1]
  folding stability dG unfold: 5.31 ± 0.088 kcal/mol
[2]
  folding stability dG unfold: 5.32 ± 0.15 kcal/mol

## SAMTPDELADELAKKFHQQNQENGYEIPDVDIKYDPEEDRVTVEFEMRNKNTGRPMRPTFQIDDPEDILSAG [r14_409_TrROS]
[1]
  folding stability dG unfold: -0.247 ± 0.33 kcal/mol
[2]
  folding stability dG unfold: < -1 kcal/mol

## SAGGSAGGSAGGPVLIRAVFTPPNGPVLELVVPSPEEVVELAKPFDVEVHIEPISPDDPFSAGGSAGGSAGG [r7_456_TrMRF]
[1]
  folding stability dG unfold: -1.12 ± 0.45 kcal/mol
[2]
  folding stability dG unfold: < -1 kcal/mol

## SAGGSAGGSAGGKTLSKEEALKKAKELAEKGEKVKIEVKNKKTKKTETIEITKEELEKLSAGGSAGGSAGGS [r10_779_TrROS_Hall]
[1]
  folding stability dG unfold: 0.47 ± 0.13 kcal/mol
[2]
  folding stability dG unfold: 0.151 ± 0.44 kcal/mol

## SAGMEEILEAAREAIEAGLTVRIEVTFKDGKKEEIEIEVESLEELLEALEKLDEIESVKIEVLAPGEEPSAG [r5_956_TrROS_Hall]
[1]
  folding stability dG unfold: 2.95 ± 0.15 kcal/mol
[2]
  folding stability dG unfold: 3.61 ± 0.95 kcal/mol

## SAGGMKITVTPSTDPNTPLTRETVTVPPTADPEAVAEKLRRAYPDGSTTTVTPRPDGTIVVTTTLPASAGGS [r8_255_JUSTAS]
[1]
  folding stability dG unfold: 0.181 ± 0.083 kcal/mol
[2]
  folding stability dG unfold: -0.291 ± 0.069 kcal/mol

## SAGGSAGGSAGGSSSMTSEKVTEKTEFDKETGKKYKIITQRISPSSVGNSSLKTEIKLESAGGSAGGSAGGS [r10_535_JUSTAS]
[1]
  folding stability dG unfold: -0.0486 ± 0.25 kcal/mol
[2]
  folding stability dG unfold: -0.735 ± 0.61 kcal/mol

## SAMKTYTFEFTLTVPPDTPLEEVKAKVKEKVKAELKKLGIPLPETAKIEIKKVKEEGNKIYFKVTVTNKSAG [r14_735_JUSTAS]
[1]
  folding stability dG unfold: 4.06 ± 0.057 kcal/mol
[2]
  folding stability dG unfold: 4.16 ± 0.14 kcal/mol

## SMTPEVSVITLRPVEVKKVGEVPVVTLEVTEVENAPEELLEKVKAGAKLTIEVPKDEPIEPDEEIEVVLPSA [r9_557_JUSTAS]
[1]
  folding stability dG unfold: 0.146 ± 0.1 kcal/mol
[2]
  folding stability dG unfold: -0.706 ± 0.27 kcal/mol

## SAGGSAGGSELRVLDARPTPDGLVVNLVAPDRLLVTRVDTGADGSQSVSSVVLDAPESTEFDLSAGGSAGGS [r12_981_TrMRF]
[1]
  folding stability dG unfold: -0.918 ± 0.36 kcal/mol
[2]
  folding stability dG unfold: < -1 kcal/mol

## SAGGSAGGSAGMTITVYPSDGTVLTRDMSLSEIPELLKKHPELVLESIEEGEGLAKFKVKSAGGSAGGSAGG [r17_22_JUSTAS]
[1]
  folding stability dG unfold: -1.05 ± 0.81 kcal/mol
[2]
  folding stability dG unfold: < -1 kcal/mol

## SAGGLVREAAAEAGATGVDIREEVPDPNGGTVVTVLPRPGLSPEEAAAVRARIEAAIAEREPGATVVLESAG [r5_101_JUSTAS]
[1]
  folding stability dG unfold: 0.161 ± 0.029 kcal/mol
[2]
  folding stability dG unfold: -0.142 ± 0.11 kcal/mol

## SAGGSAGGSAGGLIPPNQKIKIKEIEPPNNEMNIDLEYPDNGKKVEFPFDSPEQALDALSAGGSAGGSAGGS [r10_1038_TrROS]
[1]
  folding stability dG unfold: 0.658 ± 0.049 kcal/mol
[2]
  folding stability dG unfold: 0.227 ± 0.14 kcal/mol

## SAGGSAMKIEVEEFPVLVPPELIPELKDKPGAIVKVKKVKFYAEAPEEEREKLKKELEEKTGIKTESAGGSA [r15_347_TrMRF]
[1]
  folding stability dG unfold: 0.0727 ± 0.61 kcal/mol
[2]
  folding stability dG unfold: < -1 kcal/mol
